According to patent publication US20220017622A1 (Pfizer, published 2022):
Each block holds one binder with its values, some of them ahead of it.

How the values were obtained:
human B7-H4 on cells = target: T1, human B7-H4 on cells (human, UniProt Q7Z7D3 25-282); assay: cell-based or functional assay
T1 sequence (looked up): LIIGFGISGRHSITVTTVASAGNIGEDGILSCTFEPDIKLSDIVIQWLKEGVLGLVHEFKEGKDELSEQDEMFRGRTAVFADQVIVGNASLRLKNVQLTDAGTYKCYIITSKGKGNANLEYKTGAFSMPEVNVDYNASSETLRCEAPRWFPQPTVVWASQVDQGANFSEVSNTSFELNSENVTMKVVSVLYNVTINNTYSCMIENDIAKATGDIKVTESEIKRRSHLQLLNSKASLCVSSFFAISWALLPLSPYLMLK

[1] = target: T2, human B7-H4 extracellular domain (human, UniProt Q7Z7D3 29-258); assay: SPR 25 C; bispecific on anti-hFc chip, ECD analyte
T2 construct: Soluble ECD used as SPR analyte; also called huB7-H4 ECD; huB7-H4
T2 sequence: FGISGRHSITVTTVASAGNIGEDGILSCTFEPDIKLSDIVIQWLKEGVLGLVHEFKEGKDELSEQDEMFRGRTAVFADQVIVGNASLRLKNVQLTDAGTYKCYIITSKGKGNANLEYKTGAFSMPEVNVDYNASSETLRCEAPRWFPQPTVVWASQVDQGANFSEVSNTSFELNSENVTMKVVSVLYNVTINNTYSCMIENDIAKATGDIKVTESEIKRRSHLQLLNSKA

[2] = target: T3, cyno B7-H4 extracellular domain (cyno, UniProt Q7Z7D3 29-258 (human entry)); assay: SPR 25 C; bispecific on anti-hFc chip, ECD analyte
T3 construct: Soluble ECD used as SPR analyte; also called cyB7-H4 ECD; cyB7-H4
T3 sequence: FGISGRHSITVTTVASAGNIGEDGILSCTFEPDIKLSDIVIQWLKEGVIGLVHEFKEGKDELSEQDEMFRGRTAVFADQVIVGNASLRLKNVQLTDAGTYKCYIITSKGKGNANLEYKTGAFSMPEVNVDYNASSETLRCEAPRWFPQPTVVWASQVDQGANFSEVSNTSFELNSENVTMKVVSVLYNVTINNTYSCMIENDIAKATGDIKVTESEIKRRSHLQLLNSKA

[3] = target: T4, mouse B7-H4 extracellular domain (mouse, UniProt Q7TSP5 29-258); assay: SPR 25 C; bispecific on anti-hFc chip, ECD analyte
T4 construct: Soluble ECD used as SPR analyte; also called muB7-H4 ECD; muB7-H4
T4 sequence: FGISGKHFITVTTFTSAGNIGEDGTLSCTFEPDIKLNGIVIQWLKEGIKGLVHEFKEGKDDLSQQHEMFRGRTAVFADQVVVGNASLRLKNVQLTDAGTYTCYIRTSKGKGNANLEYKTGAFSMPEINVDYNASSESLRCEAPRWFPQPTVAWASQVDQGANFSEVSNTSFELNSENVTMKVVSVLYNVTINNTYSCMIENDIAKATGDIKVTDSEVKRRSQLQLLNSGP

[4] = target: T2, human B7-H4 extracellular domain; assay: SPR 37 C; bispecific on anti-hFc chip, ECD analyte
[5] = target: T3, cyno B7-H4 extracellular domain; assay: SPR 37 C; bispecific on anti-hFc chip, ECD analyte
[6] = target: T5, human CD3 (delta/epsilon heterodimer) (human, UniProt P07766 23-126; P04234 22-105); assay: SPR 25 C; CD3 delta/epsilon on anti-His chip, bispecific analyte
T5 construct: captured on an anti-His chip, so it carries a His tag; also called huCD3
T5 sequence (P07766 23-126, stated change not applied, chain 1 of 2): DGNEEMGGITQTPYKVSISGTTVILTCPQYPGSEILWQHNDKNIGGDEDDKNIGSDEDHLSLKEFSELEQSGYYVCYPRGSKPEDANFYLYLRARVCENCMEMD
T5 sequence (P04234 22-105, stated change not applied, chain 2 of 2): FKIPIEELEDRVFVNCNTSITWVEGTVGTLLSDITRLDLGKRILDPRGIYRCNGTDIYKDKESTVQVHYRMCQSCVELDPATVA

[7] = target: T6, cyno CD3 (delta/epsilon heterodimer) (cyno, UniProt Q95LI5 22-117; Q95LI8 22-105); assay: as above
T6 construct: also called cyCD3
T6 sequence (Q95LI5 22-117, stated change not applied, chain 1 of 2): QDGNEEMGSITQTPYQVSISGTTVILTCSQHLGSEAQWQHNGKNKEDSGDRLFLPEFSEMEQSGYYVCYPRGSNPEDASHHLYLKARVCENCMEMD
T6 sequence (Q95LI8 22-105, stated change not applied, chain 2 of 2): as the sequence (P04234 22-105, stated change not applied, chain 2 of 2) above, with I5V, N15K, I20V, S32T, D33N, I34N, T64A, S74N, V83L counted along it

[8] = target: T7, human B7-H4 on human tumor cell lines (human, UniProt Q7Z7D3 25-282); assay: cell-based or functional assay
T7 sequence (looked up): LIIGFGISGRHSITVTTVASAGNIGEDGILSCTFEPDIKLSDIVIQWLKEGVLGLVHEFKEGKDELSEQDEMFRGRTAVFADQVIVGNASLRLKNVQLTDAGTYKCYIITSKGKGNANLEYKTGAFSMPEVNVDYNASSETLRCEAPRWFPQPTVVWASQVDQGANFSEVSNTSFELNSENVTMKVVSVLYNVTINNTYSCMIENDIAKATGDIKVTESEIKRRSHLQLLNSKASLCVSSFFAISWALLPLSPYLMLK

[9] = target: T2, human B7-H4 extracellular domain; assay: SPR 37 C; IgG1 on anti-hFc chip, ECD analyte;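 also: antibodies captured, then B7-H4 ECD injected at five 3-fold dilutions from 300 nM, 65 s association and 600 s dissociation, fitted to a 1:1 Langmuir model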
[10] = target: T3, cyno B7-H4 extracellular domain; assay: SPR 37 C; IgG1 on anti-hFc chip, ECD analyte
[11] = target: T4, mouse B7-H4 extracellular domain; assay: SPR 37 C; IgG1 on anti-hFc chip, ECD analyte

Kd [1]: 2.39 nM
koff [1]: 0.000692 s⁻¹
kon [1]: 296000 M⁻¹ s⁻¹
Kd [2]: 4.29 nM
koff [2]: 0.000676 s⁻¹
kon [2]: 157000 M⁻¹ s⁻¹
Kd [3]: 74.8 nM
koff [3]: 0.0138 s⁻¹
kon [3]: 189000 M⁻¹ s⁻¹
Kd [4]: 6.08 nM
koff [4]: 0.00283 s⁻¹
kon [4]: 465000 M⁻¹ s⁻¹
Kd [5]: 12.8 nM
koff [5]: 0.00282 s⁻¹
kon [5]: 220000 M⁻¹ s⁻¹
Kd [6]: 12.7 nM
koff [6]: 0.00521 s⁻¹
kon [6]: 411000 M⁻¹ s⁻¹
Kd [7]: 13.3 nM
koff [7]: 0.00493 s⁻¹
kon [7]: 372000 M⁻¹ s⁻¹
B1: B7-H4xCD3 bispecific antibody 0080 (bispecific antibody, IgG2)
heavy 1: QVQLQQWGAGLLKPSETLPLTCAVYGGSFSGYYWNWIRQPPGKGLEWIGEINHSGSATYNPSLKSRVTISVDTSKNHFSLKLSSVTAADTAVYFCARGLYNWNVDHWGQGTLVTVSSASTKGPSVFPLAPCSRSTSESTAALGCLVKDYFPEPVTVSWNSGALTSGVHTFPAVLQSSGLYSLSSVVTVPSSNFGTQTYTCNVDHKPSNTKVDKTVERKCEVECPECPAPPVAGPSVFLFPPKPKDTLMISRTPEVTCVVVAVSHEDPEVQFNWYVDGVEVHNAKTKPREEQFNSTFRVVSVLTVVHQDWLNGKEYKCKVSNKGLPSSIEKTISKTKGQPREPQVYTLPPSREEMTKNQVSLTCEVKGFYPSDIAVEWESNGQPENNYKTTPPMLDSDGSFFLYSKLTVDKSRWQQGNVFSCSVMHEALHNHYTQKSLSLSPGK
light 1: DIQMTQSPSSLSASVGDRVTITCRASQGIRNDLGWYQQKPGKAPKRLIYAASSLQSGVPSRFSGSGSGTEFTLTISSLQPEDFATYYCLQHNSYPRTFGGGTKVEIKRTVAAPSVFIFPPSDEQLKSGTASVVCLLNNFYPREAKVQWKVDNALQSGNSQESVTEQDSKDSTYSLSSTLTLSKADYEKHKVYACEVTHQGLSSPVTKSFNRGEC
heavy 2: EVQLVESGGGLVQPGGSLRLSCAASGFTFSDYYMTWVRQAPGKGLEWVAFIRNQARGYTSDHNPSVKGRFTISRDNAKNSLYLQMNSLRAEDTAVYYCARDRPSYYVLDYWGQGTTVTVSSASTKGPSVFPLAPCSRSTSESTAALGCLVKDYFPEPVTVSWNSGALTSGVHTFPAVLQSSGLYSLSSVVTVPSSNFGTQTYTCNVDHKPSNTKVDKTVERKCRVRCPRCPAPPVAGPSVFLFPPKPKDTLMISRTPEVTCVVVAVSHEDPEVQFNWYVDGVEVHNAKTKPREEQFNSTFRVVSVLTVVHQDWLNGKEYKCKVSNKGLPSSIEKTISKTKGQPREPQVYTLPPSREEMTKNQVSLTCLVKGFYPSDIAVEWESNGQPENNYKTTPPMLDSDGSFFLYSRLTVDKSRWQQGNVFSCSVMHEALHNHYTQKSLSLSPGK
light 2: DIQMTQSPSSLSASVGDRVTITCTSSQSLFNVRSQKNYLAWYQQKPGKAPKLLIYWASTRESGVPSRFSGSGSGTDFTLTISSLQPEDFATYYCKQSYDLFTFGGGTKVEIKRTVAAPSVFIFPPSDEQLKSGTASVVCLLNNFYPREAKVQWKVDNALQSGNSQESVTEQDSKDSTYSLSSTLTLSKADYEKHKVYACEVTHQGLSSPVTKSFNRGEC
notes: Chains 1-2: B7-H4 arm; chains 3-4: CD3 arm; IgG2 EEE/RRR; also called anti-B7-H4 clone 7H7
T cell mediated tumor cell killing EC50, HCC1954-Luc (human B7-H4 on cells): 36 nM

B2: B7-H4xCD3 bispecific antibody 1167 (bispecific antibody, IgG2)
heavy 1: EVQLLESGGGLVQPGGSLRLSCAASGFTFSSYAMSWVRQAPGKGLEWVSAISGGGGSTYYADSVKGRFTISRDNSKNTLYLQMNSLRAEDTAVYYCARDIQWYGESTLFDYWGQGTLVTVSSASTKGPSVFPLAPCSRSTSESTAALGCLVKDYFPEPVTVSWNSGALTSGVHTFPAVLQSSGLYSLSSVVTVPSSNFGTQTYTCNVDHKPSNTKVDKTVERKCEVECPECPAPPVAGPSVFLFPPKPKDTLMISRTPEVTCVVVAVSHEDPEVQFNWYVDGVEVHNAKTKPREEQFNSTFRVVSVLTVVHQDWLNGKEYKCKVSNKGLPSSIEKTISKTKGQPREPQVYTLPPSREEMTKNQVSLTCEVKGFYPSDIAVEWESNGQPENNYKTTPPMLDSDGSFFLYSKLTVDKSRWQQGNVFSCSVMHEALHNHYTQKSLSLSPGK
light 1: DIQMTQSPSSLSASVGDRVTITCRASQSTRSHLAWYQQKPGKAPKLLIYKASSLEGGVPSRFSGSGSGTDFTLTISSLQPEDFATYYCQQYGSYSRTFGQGTKVEIKRTVAAPSVFIFPPSDEQLKSGTASVVCLLNNFYPREAKVQWKVDNALQSGNSQESVTEQDSKDSTYSLSSTLTLSKADYEKHKVYACEVTHQGLSSPVTKSFNRGEC
heavy 2: EVQLVESGGGLVQPGGSLRLSCAASGFTFSDYYMTWVRQAPGKGLEWVAFIRNQARGYTSDHNPSVKGRFTISRDNAKNSLYLQMNSLRAEDTAVYYCARDRPSYYVLDYWGQGTTVTVSSASTKGPSVFPLAPCSRSTSESTAALGCLVKDYFPEPVTVSWNSGALTSGVHTFPAVLQSSGLYSLSSVVTVPSSNFGTQTYTCNVDHKPSNTKVDKTVERKCRVRCPRCPAPPVAGPSVFLFPPKPKDTLMISRTPEVTCVVVAVSHEDPEVQFNWYVDGVEVHNAKTKPREEQFNSTFRVVSVLTVVHQDWLNGKEYKCKVSNKGLPSSIEKTISKTKGQPREPQVYTLPPSREEMTKNQVSLTCLVKGFYPSDIAVEWESNGQPENNYKTTPPMLDSDGSFFLYSRLTVDKSRWQQGNVFSCSVMHEALHNHYTQKSLSLSPGK
light 2: DIQMTQSPSSLSASVGDRVTITCTSSQSLFNVRSQKNYLAWYQQKPGKAPKLLIYWASTRESGVPSRFSGSGSGTDFTLTISSLQPEDFATYYCKQSYDLFTFGGGTKVEIKRTVAAPSVFIFPPSDEQLKSGTASVVCLLNNFYPREAKVQWKVDNALQSGNSQESVTEQDSKDSTYSLSSTLTLSKADYEKHKVYACEVTHQGLSSPVTKSFNRGEC
EC50 (nM) of Antibody 1167 in inducing redirected T cell killing in vitro, HCC1954 cells (B7-H4 density 20039 per cell) [8]: 0.8 nM
EC50 (nM) of Antibody 1167 in inducing redirected T cell killing in vitro, MDA-MB-453 cells (B7-H4 density 1198 per cell) [8]: 8.44 nM
EC50 (nM) of Antibody 1167 in inducing redirected T cell killing in vitro, MDA-MB-468 cells (B7-H4 density 83936 per cell) [8]: 0.4 nM
EC50 (nM) of Antibody 1167 in inducing redirected T cell killing in vitro, MX1 cells (B7-H4 density 108684 per cell) [8]: 0.062 nM
EC50 (nM) of Antibody 1167 in inducing redirected T cell killing in vitro, T47D cells (B7-H4 density 6133 per cell) [8]: 0.54 nM

Kd [9]: 12.1 nM
koff [9]: 0.00565 s⁻¹
kon [9]: 467000 M⁻¹ s⁻¹
Kd [10]: 30.7 nM
koff [10]: 0.00424 s⁻¹
kon [10]: 139000 M⁻¹ s⁻¹
Kd [11]: 883 nM
koff [11]: 0.126 s⁻¹
kon [11]: 143000 M⁻¹ s⁻¹
B3: B7-H4 antibody 0052 (antibody, human IgG1, kappa, V domains shown)
VH: QVQLQQWGAGLLKPSETLSLTCAVYGGSFSGYYWNWIRQPPGKGLEWIGEINHSGSTKYNPSLKSRVTISGDTSKNQFSLKLNSVTAADTAVYYCVRGLYNWNVDSWGQGTLVTVSS
VL: DIQMTQSPSSLSASVGDRVTITCRASQGIRNDLGWYQQKPGKAPKRLIYVASSLQSGVPSRFSGSGSGTEFTLTISSLQPEDFATYYCLQHNSYPYTFGQGTKLEIKR
notes: IgG1 mAb format; parental; also called 28D10
